According to patent publication US12427210B2, “Compounds comprising a fibroblast activation protein ligand and use thereof” (priority 2019, dated 2025):

Columns and labels:
mu (MOP) (h) (human) = mu (MOP) (h) (human) (UniProt P35372); experiment: radioligand displacement, reference compound of the assay (Ki Ref)
delta (DOP) (h) (human) = delta (DOP) (h) (human) (UniProt P41143); experiment: as above

| Substance | Ki (mu (MOP) (h) (human)) | Ki (delta (DOP) (h) (human)) |
| --- | --- | --- |
| DAMGO (peptide) | 370 pM | – |
| DPDPE (peptide) | – | 1200 pM |
